According to patent US20180155451A1 (published 2018):

T1: FcγRIIa R (extracellular domain with a His tag at the C terminus) (human, UniProt P12318 34-217)
T1 construct: extracellular domain; expressed in FreeStyle293 cells; also called FcgRIIa R; FcγRIIa type R; not shown: His tag at the C terminus
T1 sequence (looked up): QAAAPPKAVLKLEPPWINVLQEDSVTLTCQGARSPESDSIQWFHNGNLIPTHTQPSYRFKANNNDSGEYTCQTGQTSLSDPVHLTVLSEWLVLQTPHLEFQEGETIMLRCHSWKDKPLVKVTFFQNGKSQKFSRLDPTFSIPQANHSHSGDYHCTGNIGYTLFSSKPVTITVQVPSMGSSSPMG

B1: GpH7-B3 variant S337_02A/GpL16-k0 (antibody, human IgG1, kappa)
heavy: not shown
light: DIVMTQSPLSLPVTPGEPASISCQASESLVHSNRNTYLHWYLQKPGQSPQLLIYKVSNRFSGVPDRFSGSGSGTDFTLKISRVEAEDVGVYYCSQNTHVPPTFGQGTKVEIERTVAAPSVFIFPPSDEQLKSGTASVVCLLNNFYPREAKVQWKVDNALQSGNSQESVTEQDSKDSTYSLSSTLTLSKADYEKHKVYACEVTHQGLSSPVTKSFNRGEC
notes: homodimerized; mutation in both H chains; also called Ho Ab
B2: GpH7-B3 variant P331_16H/GpL16-k0 (antibody, human IgG1, kappa)
heavy: not shown
light: B1 light
notes: as for B1
B3: GpH7-B3 variant G237_04F/GpL16-k0 (antibody, human IgG1, kappa)
heavy: not shown
light: B1 light
notes: as for B1
B4: GpH7-B3 variant S239_18N/GpL16-k0 (antibody, human IgG1, kappa)
heavy: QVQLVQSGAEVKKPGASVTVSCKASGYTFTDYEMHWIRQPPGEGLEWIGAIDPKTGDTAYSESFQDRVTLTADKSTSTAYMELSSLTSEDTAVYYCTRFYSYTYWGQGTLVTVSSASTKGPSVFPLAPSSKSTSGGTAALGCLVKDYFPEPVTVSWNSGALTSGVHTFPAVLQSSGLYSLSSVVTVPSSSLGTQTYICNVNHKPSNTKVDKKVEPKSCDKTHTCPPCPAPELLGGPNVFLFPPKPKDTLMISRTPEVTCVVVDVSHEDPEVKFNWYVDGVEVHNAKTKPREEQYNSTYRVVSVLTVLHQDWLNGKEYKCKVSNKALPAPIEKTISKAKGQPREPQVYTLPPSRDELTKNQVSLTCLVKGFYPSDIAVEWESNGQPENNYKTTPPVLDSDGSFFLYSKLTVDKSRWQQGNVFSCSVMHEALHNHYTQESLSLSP
light: B1 light
notes: as for B1
B5: GpH7-B3 variant P238_03V/GpL16-k0 (antibody, human IgG1, kappa)
heavy: not shown
light: B1 light
notes: as for B1
B6: GpH7-B3 variant A327_09D/GpL16-k0 (antibody, human IgG1, kappa)
heavy: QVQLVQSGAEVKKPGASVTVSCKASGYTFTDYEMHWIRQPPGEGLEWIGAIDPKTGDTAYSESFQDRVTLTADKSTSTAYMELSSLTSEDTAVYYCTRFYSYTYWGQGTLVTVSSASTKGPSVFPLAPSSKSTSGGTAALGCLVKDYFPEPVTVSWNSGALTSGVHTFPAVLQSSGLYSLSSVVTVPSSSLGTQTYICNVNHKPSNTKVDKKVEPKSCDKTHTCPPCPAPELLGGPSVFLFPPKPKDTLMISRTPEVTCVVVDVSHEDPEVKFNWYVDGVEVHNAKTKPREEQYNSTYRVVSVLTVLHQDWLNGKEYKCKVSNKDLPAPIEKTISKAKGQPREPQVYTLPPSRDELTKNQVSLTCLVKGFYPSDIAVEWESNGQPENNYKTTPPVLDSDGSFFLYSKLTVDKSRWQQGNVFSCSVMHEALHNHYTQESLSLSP
light: B1 light
notes: as for B1
B7: GpH7-B3 variant K334_02A/GpL16-k0 (antibody, human IgG1, kappa)
heavy: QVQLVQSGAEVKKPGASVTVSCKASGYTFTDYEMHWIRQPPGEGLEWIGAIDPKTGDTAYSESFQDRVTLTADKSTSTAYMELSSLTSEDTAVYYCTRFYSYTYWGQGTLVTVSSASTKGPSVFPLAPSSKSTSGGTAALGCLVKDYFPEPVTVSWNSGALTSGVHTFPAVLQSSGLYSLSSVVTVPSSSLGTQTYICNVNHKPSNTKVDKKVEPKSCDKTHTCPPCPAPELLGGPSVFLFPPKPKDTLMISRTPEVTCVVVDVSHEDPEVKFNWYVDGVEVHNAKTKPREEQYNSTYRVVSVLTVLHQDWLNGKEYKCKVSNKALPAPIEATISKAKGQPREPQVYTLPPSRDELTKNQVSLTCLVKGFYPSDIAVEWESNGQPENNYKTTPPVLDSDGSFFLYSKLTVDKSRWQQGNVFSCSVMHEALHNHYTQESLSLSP
light: B1 light
notes: as for B1
B8: GpH7-B3 variant I332_06M/GpL16-k0 (antibody, human IgG1, kappa)
heavy: not shown
light: B1 light
notes: as for B1
B9: GpH7-B3 variant K326_07I/GpL16-k0 (antibody, human IgG1, kappa)
heavy: not shown
light: B1 light
notes: as for B1
B10: GpH7-B3 variant H268_01G/GpL16-k0 (antibody, human IgG1, kappa)
heavy: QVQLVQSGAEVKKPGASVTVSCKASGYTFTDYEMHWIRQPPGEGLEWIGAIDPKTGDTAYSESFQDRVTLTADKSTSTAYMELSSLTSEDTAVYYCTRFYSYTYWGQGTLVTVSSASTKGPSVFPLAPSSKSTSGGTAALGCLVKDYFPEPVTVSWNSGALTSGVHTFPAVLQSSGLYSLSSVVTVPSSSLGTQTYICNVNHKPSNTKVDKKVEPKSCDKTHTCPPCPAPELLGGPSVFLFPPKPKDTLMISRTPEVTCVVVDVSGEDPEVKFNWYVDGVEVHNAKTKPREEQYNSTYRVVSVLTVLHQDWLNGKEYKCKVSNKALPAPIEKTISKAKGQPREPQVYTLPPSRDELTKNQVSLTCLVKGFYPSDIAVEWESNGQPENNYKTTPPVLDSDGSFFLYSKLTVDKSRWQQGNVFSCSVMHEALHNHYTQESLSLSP
light: B1 light
notes: as for B1
B11: GpH7-B3 variant K334_05P/GpL16-k0 (antibody, human IgG1, kappa)
heavy: not shown
light: B1 light
notes: as for B1
B12: GpH7-B3 variant P331_04F/GpL16-k0 (antibody, human IgG1, kappa)
heavy: not shown
light: B1 light
notes: as for B1
B13: GpH7-B3 variant S267_09D/GpL16-k0 (antibody, human IgG1, kappa)
heavy: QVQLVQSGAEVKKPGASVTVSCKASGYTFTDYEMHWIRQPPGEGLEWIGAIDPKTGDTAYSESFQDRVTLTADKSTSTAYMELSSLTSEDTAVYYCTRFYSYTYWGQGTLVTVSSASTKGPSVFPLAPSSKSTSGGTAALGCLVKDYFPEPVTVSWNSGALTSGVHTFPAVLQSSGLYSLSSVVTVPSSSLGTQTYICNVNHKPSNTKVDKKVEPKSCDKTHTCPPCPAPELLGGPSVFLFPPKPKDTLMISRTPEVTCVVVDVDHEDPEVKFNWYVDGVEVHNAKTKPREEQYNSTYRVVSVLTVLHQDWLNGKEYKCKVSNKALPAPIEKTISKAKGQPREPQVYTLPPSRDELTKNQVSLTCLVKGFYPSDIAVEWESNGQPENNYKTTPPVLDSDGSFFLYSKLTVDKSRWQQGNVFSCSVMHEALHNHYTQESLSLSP
light: B1 light
notes: as for B1
B14: GpH7-B3 variant P331_20W/GpL16-k0 (antibody, human IgG1, kappa)
heavy: not shown
light: B1 light
notes: as for B1
B15: GpH7-B3 variant S267_06M/GpL16-k0 (antibody, human IgG1, kappa)
heavy: not shown
light: B1 light
notes: as for B1
B16: GpH7-B3 variant L328_14T/GpL16-k0 (antibody, human IgG1, kappa)
heavy: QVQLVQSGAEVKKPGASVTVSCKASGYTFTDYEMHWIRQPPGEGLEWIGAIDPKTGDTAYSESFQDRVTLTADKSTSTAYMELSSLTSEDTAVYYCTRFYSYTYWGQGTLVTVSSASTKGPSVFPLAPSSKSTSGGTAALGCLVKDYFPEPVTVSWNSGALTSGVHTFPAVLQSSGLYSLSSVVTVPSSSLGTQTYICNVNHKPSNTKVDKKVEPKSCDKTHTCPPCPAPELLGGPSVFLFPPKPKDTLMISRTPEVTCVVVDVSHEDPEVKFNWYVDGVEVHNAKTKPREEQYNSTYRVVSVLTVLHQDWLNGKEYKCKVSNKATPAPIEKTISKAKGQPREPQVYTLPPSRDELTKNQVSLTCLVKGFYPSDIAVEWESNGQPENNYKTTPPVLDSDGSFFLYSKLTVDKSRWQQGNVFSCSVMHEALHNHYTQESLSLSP
light: B1 light
notes: as for B1
B17: GpH7-B3 variant K326_08L/GpL16-k0 (antibody, human IgG1, kappa)
heavy: not shown
light: B1 light
notes: as for B1
B18: GpH7-B3 variant K334_19Q/GpL16-k0 (antibody, human IgG1, kappa)
heavy: not shown
light: B1 light
notes: as for B1
B19: GpH7-B3 variant P238_04F/GpL16-k0 (antibody, human IgG1, kappa)
heavy: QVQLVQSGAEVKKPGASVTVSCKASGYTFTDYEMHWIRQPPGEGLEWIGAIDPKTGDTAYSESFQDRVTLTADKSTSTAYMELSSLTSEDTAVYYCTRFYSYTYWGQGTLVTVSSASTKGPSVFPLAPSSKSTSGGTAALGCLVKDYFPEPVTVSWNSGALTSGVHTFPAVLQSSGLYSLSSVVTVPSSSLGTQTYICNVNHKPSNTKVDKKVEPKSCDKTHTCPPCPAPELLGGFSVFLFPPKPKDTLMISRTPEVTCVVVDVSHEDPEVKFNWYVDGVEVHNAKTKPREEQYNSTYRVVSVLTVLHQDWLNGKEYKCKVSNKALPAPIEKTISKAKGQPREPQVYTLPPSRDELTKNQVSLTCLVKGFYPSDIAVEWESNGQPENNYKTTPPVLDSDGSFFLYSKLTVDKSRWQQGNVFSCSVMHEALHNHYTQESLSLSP
light: B1 light
notes: as for B1
B20: GpH7-B3 variant P271_08L/GpL16-k0 (antibody, human IgG1, kappa)
heavy: not shown
light: B1 light
notes: as for B1
B21: GpH7-B3 variant A330_01G/GpL16-k0 (antibody, human IgG1, kappa)
heavy: not shown
light: B1 light
notes: as for B1
B22: GpH7-B3 variant K326_04F/GpL16-k0 (antibody, human IgG1, kappa)
heavy: not shown
light: B1 light
notes: as for B1
B23: GpH7-B3 variant S267_19Q/GpL16-k0 (antibody, human IgG1, kappa)
heavy: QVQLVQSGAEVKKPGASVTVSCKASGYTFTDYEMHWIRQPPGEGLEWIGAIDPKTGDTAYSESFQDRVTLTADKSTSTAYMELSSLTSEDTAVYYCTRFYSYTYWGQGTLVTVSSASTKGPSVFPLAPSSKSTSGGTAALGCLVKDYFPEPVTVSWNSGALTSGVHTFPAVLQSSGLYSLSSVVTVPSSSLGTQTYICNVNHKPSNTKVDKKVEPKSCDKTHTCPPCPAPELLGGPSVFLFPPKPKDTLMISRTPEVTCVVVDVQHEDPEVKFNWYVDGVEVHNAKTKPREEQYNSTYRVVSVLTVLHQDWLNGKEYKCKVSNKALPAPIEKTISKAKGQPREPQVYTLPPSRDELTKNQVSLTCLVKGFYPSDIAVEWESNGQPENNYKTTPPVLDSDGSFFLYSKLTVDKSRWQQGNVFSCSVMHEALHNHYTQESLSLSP
light: B1 light
notes: as for B1
B24: GpH7-B3 variant L328_13S/GpL16-k0 (antibody, human IgG1, kappa)
heavy: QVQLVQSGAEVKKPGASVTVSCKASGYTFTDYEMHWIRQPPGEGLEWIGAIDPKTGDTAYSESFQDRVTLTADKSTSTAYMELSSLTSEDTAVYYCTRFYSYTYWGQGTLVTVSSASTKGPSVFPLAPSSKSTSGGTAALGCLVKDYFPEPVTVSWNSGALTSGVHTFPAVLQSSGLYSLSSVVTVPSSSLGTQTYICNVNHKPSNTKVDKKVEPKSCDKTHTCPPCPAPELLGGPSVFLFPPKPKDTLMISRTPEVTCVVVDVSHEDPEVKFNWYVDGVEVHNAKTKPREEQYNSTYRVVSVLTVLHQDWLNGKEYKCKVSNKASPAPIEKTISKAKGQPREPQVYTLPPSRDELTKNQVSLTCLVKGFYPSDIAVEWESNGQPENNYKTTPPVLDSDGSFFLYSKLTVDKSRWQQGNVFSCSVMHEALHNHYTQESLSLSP
light: B1 light
notes: as for B1
B25: GpH7-B3 variant K334_08L/GpL16-k0 (antibody, human IgG1, kappa)
heavy: not shown
light: B1 light
notes: as for B1
B26: GpH7-B3 variant K326_03V/GpL16-k0 (antibody, human IgG1, kappa)
heavy: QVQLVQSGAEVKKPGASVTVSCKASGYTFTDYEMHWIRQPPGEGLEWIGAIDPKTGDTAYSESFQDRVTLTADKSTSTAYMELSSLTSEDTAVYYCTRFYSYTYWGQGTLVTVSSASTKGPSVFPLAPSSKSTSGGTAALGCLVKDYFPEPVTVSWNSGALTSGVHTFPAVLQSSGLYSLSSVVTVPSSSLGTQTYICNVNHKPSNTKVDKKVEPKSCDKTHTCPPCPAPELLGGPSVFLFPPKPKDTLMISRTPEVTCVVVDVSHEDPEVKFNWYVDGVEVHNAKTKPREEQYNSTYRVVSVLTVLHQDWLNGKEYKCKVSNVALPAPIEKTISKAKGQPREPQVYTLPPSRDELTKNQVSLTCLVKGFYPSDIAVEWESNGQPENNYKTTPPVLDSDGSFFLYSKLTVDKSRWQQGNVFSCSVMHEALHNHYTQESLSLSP
light: B1 light
notes: as for B1
B27: GpH7-B3 variant K334_10E/GpL16-k0 (antibody, human IgG1, kappa)
heavy: not shown
light: B1 light
notes: as for B1
B28: GpH7-B3 variant P331_02A/GpL16-k0 (antibody, human IgG1, kappa)
heavy: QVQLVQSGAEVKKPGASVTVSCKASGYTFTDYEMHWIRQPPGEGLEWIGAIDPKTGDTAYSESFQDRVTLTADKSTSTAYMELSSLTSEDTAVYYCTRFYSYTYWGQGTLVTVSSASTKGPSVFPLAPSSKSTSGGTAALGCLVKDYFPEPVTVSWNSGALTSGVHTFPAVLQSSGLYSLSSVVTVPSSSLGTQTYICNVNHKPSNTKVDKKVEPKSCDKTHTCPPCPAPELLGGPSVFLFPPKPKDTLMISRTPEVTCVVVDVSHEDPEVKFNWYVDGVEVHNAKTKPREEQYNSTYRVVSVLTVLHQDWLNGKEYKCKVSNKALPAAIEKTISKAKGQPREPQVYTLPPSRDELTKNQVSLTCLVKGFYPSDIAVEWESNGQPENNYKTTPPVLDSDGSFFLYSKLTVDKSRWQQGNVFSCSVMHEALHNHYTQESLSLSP
light: B1 light
notes: as for B1

Molecular target: T1, FcγRIIa R (extracellular domain with a …)
Assay: SPR Biacore, relative binding

Row | Ho/Con_2aR | Binder
1 | 102 % of GpH7-B3/GpL16-k0 (=100) | B1
2 | 100 % of GpH7-B3/GpL16-k0 (=100) | B2
3 | 113 % of GpH7-B3/GpL16-k0 (=100) | B3
4 | 103 % of GpH7-B3/GpL16-k0 (=100) | B4
5 | 116 % of GpH7-B3/GpL16-k0 (=100) | B5
6 | 120 % of GpH7-B3/GpL16-k0 (=100) | B6
7 | 100 % of GpH7-B3/GpL16-k0 (=100) | B7
8 | 105 % of GpH7-B3/GpL16-k0 (=100) | B8
9 | 133 % of GpH7-B3/GpL16-k0 (=100) | B9
10 | 122 % of GpH7-B3/GpL16-k0 (=100) | B10
11 | 102 % of GpH7-B3/GpL16-k0 (=100) | B11
12 | 106 % of GpH7-B3/GpL16-k0 (=100) | B12
13 | 167 % of GpH7-B3/GpL16-k0 (=100) | B13
14 | 102 % of GpH7-B3/GpL16-k0 (=100) | B14
15 | 102 % of GpH7-B3/GpL16-k0 (=100) | B15
16 | 118 % of GpH7-B3/GpL16-k0 (=100) | B16
17 | 131 % of GpH7-B3/GpL16-k0 (=100) | B17
18 | 108 % of GpH7-B3/GpL16-k0 (=100) | B18
19 | 146 % of GpH7-B3/GpL16-k0 (=100) | B19
20 | 102 % of GpH7-B3/GpL16-k0 (=100) | B20
21 | 106 % of GpH7-B3/GpL16-k0 (=100) | B21
22 | 133 % of GpH7-B3/GpL16-k0 (=100) | B22
23 | 110 % of GpH7-B3/GpL16-k0 (=100) | B23
24 | 108 % of GpH7-B3/GpL16-k0 (=100) | B24
25 | 105 % of GpH7-B3/GpL16-k0 (=100) | B25
26 | 139 % of GpH7-B3/GpL16-k0 (=100) | B26
27 | 106 % of GpH7-B3/GpL16-k0 (=100) | B27
28 | 102 % of GpH7-B3/GpL16-k0 (=100) | B28
